Data on two molecules can be found in article PMC9388512 (Nature Communications, 2022).

In test [1] the target is T1, eIF4E, purified recombinant human full-length (human, UniProt P06730 1-217).
T1 construct: eIF4E, human, full-length clone in pET11d; m7GTP was present at immobilisation and in the crystals; also called pure eIF4E; eukaryotic translation initiation factor 4E
As to the kind of experiment: fluorescence polarisation; competition: eIF4E 200 nM, FAM-labelled eIF4G1 peptide 50 nM, VH domains titrated; PBS pH 7.4, 0.1% Tween 20. The note with it: both partners purified.

Test [2] has as its target T1, eIF4E, purified recombinant human …. The test is described as follows: SPR; 4E-BP1^4ALA over eIF4E amine-coupled to a CM5 chip; single or multi cycle not told; fitted with a 1:1 model (poor fit) and then with a 2-state model; n = 3. The note with it: both partners purified.

FAM = carboxyfluorescein label

T1 sequence (P06730 whole entry): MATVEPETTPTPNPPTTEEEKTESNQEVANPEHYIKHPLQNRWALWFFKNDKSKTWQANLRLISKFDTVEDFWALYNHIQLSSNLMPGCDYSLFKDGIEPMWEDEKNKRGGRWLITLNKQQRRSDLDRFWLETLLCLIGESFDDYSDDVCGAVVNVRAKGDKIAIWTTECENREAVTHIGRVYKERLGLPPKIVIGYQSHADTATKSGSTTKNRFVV

B1: FAM labelled eIF4G1 peptide (Ac-KKRYSRDFLLALQK-(FAM)-NH2) (peptide)
peptide: Ac-KKRYSRDFLLALQK(FAM)-NH2
notes: also called labelled peptide; tracer peptide; source: synthetic peptide; bought: Mimotopes
For the molecule B1, the binding result in test [1] is recorded as “binds”.

B2: 4E-BP1^4ALA, purified (natural protein, UniProt Q13541 1-118, looked up)
chain: MSGGSSCSQTPSRAIPATRRVVLGDGVQLPPGDYSTAPGGTLFSTAPGGTRIIYDRKFLMECRNAPVTKAPPRDLPTIPGVTSPSSDEPPMEASQSHLRNSPEDKRAGGEESQFEMDI
On to B2, for which, in test [2], the Kd worked out at 0.68 nM.
